Data from the RNAGym collection of RNA variant scans (doi:10.7554/elife.90254).

B1: LINE1-full (parent)
chain: UACGUAGGUGGUUUUCCCCUGAUAGUGCUAAGGGGGCCUGGAAGUUUGGACUGGGCAGAGCUCAACACAGCGUGGCAAAGUGGCUGUGGCUAGACUGCCUCUCUGGAUUCCUCGUCACUCAGCAGGGCAUCUCUGAGAGAAAUGCC

Variants of: B1
Experiment: self-cleavage, relative activity (ratio to wild type); higher = more cleavage; in vitro, sequencing; the parent is a self-cleaving ribozyme

Row | Variant | self-cleavage
1 | U62C U115A | 0.04
2 | U62C C146U | 0.03
3 | A65G C145G | 0.02
4 | U62C U112C | 0.05
5 | A67C A117G | 0
6 | U62C G137A | 0.17
7 | U62C U85G | 0
8 | A64U A142G | 0.47
9 | A64U A142U | 0.46
10 | A65U G127U | 0.28
11 | C66U U115C | 0.01
12 | A64U A117U | 0.49
13 | A65G A67C | 0.14
14 | A65G A67G | 0.09
15 | A65G A67U | 0.03
16 | U62C U102A | 0.04
17 | A64G A78U | 0.23
18 | A64C U115C | 0.47
19 | A64C U115A | 0.38
20 | A67C A124G | 0.06
21 | A65U U109C | 0.18
22 | U62C G126U | 0.04
23 | U62C G126C | 0.01
24 | A65C U81A | 0.02

Row | Variant | self-cleavage
25 | A64G G106U | 0.15
26 | A64C U87C | 0.22
27 | U62G A138G | 0.09
28 | A64G U115A | 0.08
29 | A64G U115G | 0.35
30 | A65G G93A | 0.02
31 | A65U U112C | 0.26
32 | A64G A117G | 0.21
33 | U62G U115G | 0.14
34 | A64U A141G | 0.32
35 | U62C U109A | 0.03
36 | U62C U109C | 0.08
37 | A64G C76U | 0.13
38 | C63U U91C | 0.18
39 | C63U U91G | 0.04
40 | C63A A129G | 0.09
41 | C63A A129U | 0.06
42 | A67C C118G | 0.05
43 | A65U U96A | 0
44 | A64G U96C | 0.15
45 | A64U C113A | 0.17
46 | A64U C113U | 0.28
47 | A64G U104C | 0.59
48 | A64G G125U | 0.33

Row | Variant | self-cleavage
49 | A65C G74U | 0.03
50 | A65G G105A | 0.01
51 | U62C G122A | 0.04
52 | U62C G122C | 0.03
53 | A64U U143C | 0.42
54 | A64G G144A | 0.21
55 | A65C A140G | 0.05
56 | U62C U100C | 0.09
57 | A64C C145U | 0.4
58 | A65U A136G | 0.2
59 | C63A U73A | 0.06
60 | U62C C123U | 0.01
61 | U62C C123G | 0.07
62 | A65G A94U | 0.05
63 | A65U C71U | 0.05
64 | C63A U130C | 0.05
65 | A65C A136G | 0
66 | A65G U100G | 0
67 | A65G U112A | 0.04
68 | U62C C118U | 0.03
69 | A64U U87C | 0.12
70 | A64G A138U | 0.27
71 | A64G U134A | 0.24
72 | A64U U109A | 0.49

Row | Variant | self-cleavage
73 | C66U A107G | 0.03
74 | A65U A69U | 0.03
75 | A64U C110A | 0.44
76 | C63U U87A | 0.07
77 | A64G G97C | 0.11
78 | A64G G97A | 0.07
79 | A64U U96C | 0.04
80 | A64U G114A | 0.41
81 | A64U A67G | 0.15
82 | A67C A129G | 0
83 | A64G U119A | 0.32
84 | A65G A117U | 0.04
85 | A65G C90A | 0.01
86 | A65G C90G | 0.09
87 | A65G C71G | 0.05
88 | A65G A79U | 0.04
89 | A65C A141G | 0.02
90 | A64U A77U | 0.48
91 | A64U A77G | 0.75
92 | A65G U102G | 0
93 | A65G U102A | 0.01
94 | A65G U102C | 0.08
95 | A64G U102A | 0.15
96 | A64G U112A | 0.16

Row | Variant | self-cleavage
97 | U62G U130C | 0.11
98 | A64G U108C | 0.31
99 | A65G A107U | 0
100 | A65G U109G | 0.23
101 | A65G U109C | 0.06
102 | A64G G86A | 0.08
103 | A64C A67G | 0.04
104 | A64G C123U | 0.26
105 | A64U U132C | 0.49
106 | A64U U132G | 0.61
107 | A65G A136G | 0.07
108 | U62C G88U | 0.04
109 | C63U U73G | 0.21
110 | A65G C95U | 0.05
111 | A64G A141U | 0.17
112 | A64G A141C | 0.11
113 | A65U C99U | 0.1
114 | A64G A121G | 0.28
115 | A64G U109A | 0.14
116 | A64G U109C | 0.2
117 | A65U U134A | 0.13
118 | A65U A77G | 0.3
119 | C66A A107U | 0.05
120 | C66A A107G | 0.03

Row | Variant | self-cleavage
121 | A65G U134G | 0.03
122 | A65G U134C | 0.06
123 | A65G U85G | 0.07
124 | A64U G93U | 0.05
125 | A64G A107G | 0.33
126 | A65C A129G | 0.09
127 | A65U C111U | 0.24
128 | A65U U85G | 0.1
129 | A65U U85C | 0.06
130 | A64U G137A | 0.24
131 | A65G U73A | 0.04
132 | A65G U73C | 0.06
133 | C63U U100C | 0.99
134 | C63U U100G | 0.35
135 | A64C U143C | 0.35
136 | A64C A141G | 0.48
137 | A64C A141U | 0.3
138 | U62G A67G | 0.09
139 | U62C G83U | 0.03
140 | U62G U73C | 0
141 | A64G C116A | 0.1
142 | A64G C99U | 0.18
143 | A65G C101U | 0.04
144 | A65G A121G | 0.08

Row | Variant | self-cleavage
145 | A65G C113U | 0.04
146 | U62G U108C | 0.07
147 | A64G C113A | 0.17
148 | A64G C113U | 0.13
149 | A64U U115C | 0.63
150 | C63A U81A | 0.06
151 | C63U U119G | 0.37
152 | A65U C133U | 0.16
153 | A65G U96A | 0.07
154 | A65G U81C | 0.09
155 | U62C U96C | 0.06
156 | A64G A79G | 0.24
157 | A65G C103U | 0.06
158 | A64C U132C | 0.34
159 | A65U U119C | 0.19
160 | A65U U119G | 0.45
161 | U62C U119A | 0.07
162 | U62C U119C | 0.07
163 | A65G G144A | 0.1
164 | A65G A142G | 0.06
165 | A64C A65G | 0.19
166 | A64C A65U | 0.06
167 | A65G G139A | 0.06
